First the molecules themselves.
B1: Scm3_(83–169) (domain or fragment)
chain: IIPKLTDDEVMERHKLADENMRKVWSNIISKYESIEEQGDLVDLKTGEIVEDNGHIKTLTANNSTKDKRTKYTSVLRDIIDISDEED

Assay [1] addresses single chain Cse4-H4 with Cse4 Ala189Ser/Ser190Val (budding yeast | , UniProt P36012;P02309, Ala189Ser | Ser190Val). The assay is described as follows: ITC. On the technique in general: In ITC the heat of successive injections is recorded.
Assay [2] deals with single chain Cse4-H4 with Cse4 Met181Ser/Met184Gly (budding yeast | , UniProt P36012;P02309, Met181Ser | Met184Gly). The assay is described as follows: ITC.
The assay “Scm3_(83–169)” has as its target B1. The assay is described as follows: ITC.
Assay [3] addresses T1, Scm3 residues 93-169, as it stands in the single-chain molecule scSCH (yeast, UniProt Q12334 93-169).
T1 sequence: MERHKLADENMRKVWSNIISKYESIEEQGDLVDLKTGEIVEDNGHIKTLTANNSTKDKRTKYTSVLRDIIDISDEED
The assay is described as follows: NMR structure.

Here are results for three molecules from PMC3077455 (Nature, 2011).

Regarding B1, the results for the “fold reduction of the binding affinity against the wild type” value in assay [1] and in assay [2] were 9 fold and 5.5 fold, respectively.

B2: single chain Cse4-H4 (His6-KK-Cse4_(151–207)-LVPRGS-H4_(45–103)) (complex)
chain: not shown
Take B2: the binding result with Scm3_(83–169) is listed as “binds”.

B3: Histone H4 residues 42-103, as it stands in the single-chain molecule scSCH (domain or fragment)
chain: not shown
Regarding B3, in assay [3], the binding result is on record as “binds”.
